Data taken from CN116178550A (BEIJING DONGFANG BIOTECH CO LTD, dated 2023).

Key:
[1] = biological target: T1, LILRB4抗原 (人LILRB4蛋白胞外段) (human, UniProt Q8NHJ6 22-259); assay: ELISA, LILRB4 coated 100 ng/well, Goat Anti-Mouse IgG-HRP
T1 construct: extracellular domain; also called 白细胞免疫球蛋白样受体亚家族B成员4

[2] = biological target: T2, 人单核细胞白血病细胞(THP-1)表面LILRB4 (human, UniProt Q8NHJ6 22-448); assay: flow cytometry on THP-1 cells, competition with 0.4 μg/mL FITC-labelled ApoE
T2 construct: whole, on cells; Endogenous LILRB4 on THP-1 cells; also called THP-1细胞表面的LILRB4

[3] = biological target: T2, 人单核细胞白血病细胞(THP-1)表面LILRB4; assay: cell-based or functional assay
[4] = biological target: T3, LILRB2 (UniProt Q8N423 22-460, limits assumed); assay: ELISA, protein coated 100 ng/well, MF-I at 50 μg/mL
[5] = biological target: T4, LILRA6 (UniProt Q6PI73 24-447, limits assumed); assay: as above
[6] = biological target: T5, LILRA4 (UniProt P59901 24-446, limits assumed); assay: as above
[7] = biological target: T6, LILRB3 (UniProt O75022 24-443, limits assumed); assay: as above
[8] = biological target: T7, LILRB1 (UniProt Q8NHL6 24-461, limits assumed); assay: as above
[9] = biological target: T8, LILRB5 (UniProt O75023 24-458, limits assumed); assay: as above
[10] = biological target: T9, LILRA1 (UniProt O75019 17-461, limits assumed); assay: as above
[11] = biological target: T1, LILRB4抗原 (人LILRB4蛋白胞外段); assay: as above
[12] = biological target: T10, LILRA5 (UniProt A6NI73 42-268, limits assumed); assay: as above
[13] = biological target: T11, LILRA3 (UniProt Q8N6C8 24-439); assay: as above
[14] = biological target: T12, LILRA2 (UniProt Q8N149 24-449, limits assumed); assay: as above
[15] = biological target: T3, LILRB2; assay: ELISA, protein coated 100 ng/well, Goat Anti-Mouse IgG-HRP
[16] = biological target: T4, LILRA6; assay: as above
[17] = biological target: T5, LILRA4; assay: as above
[18] = biological target: T6, LILRB3; assay: as above
[19] = biological target: T7, LILRB1; assay: as above
[20] = biological target: T8, LILRB5; assay: as above
[21] = biological target: T9, LILRA1; assay: as above
[22] = biological target: T10, LILRA5; assay: as above
[23] = biological target: T11, LILRA3; assay: as above
[24] = biological target: T12, LILRA2; assay: as above

T8 sequence (O75023 24-458 limits assumed): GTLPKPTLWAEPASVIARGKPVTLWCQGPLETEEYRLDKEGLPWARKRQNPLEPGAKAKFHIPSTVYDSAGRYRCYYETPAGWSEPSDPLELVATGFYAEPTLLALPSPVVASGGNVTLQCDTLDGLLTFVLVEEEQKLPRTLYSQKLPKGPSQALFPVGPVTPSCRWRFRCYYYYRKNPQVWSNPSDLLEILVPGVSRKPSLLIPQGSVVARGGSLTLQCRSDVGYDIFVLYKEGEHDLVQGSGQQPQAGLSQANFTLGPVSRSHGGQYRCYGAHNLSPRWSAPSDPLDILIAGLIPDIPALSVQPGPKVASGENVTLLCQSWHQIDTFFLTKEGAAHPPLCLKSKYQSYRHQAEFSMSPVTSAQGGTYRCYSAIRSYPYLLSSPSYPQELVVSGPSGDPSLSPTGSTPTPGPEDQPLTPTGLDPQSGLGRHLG
T7 sequence (Q8NHL6 24-461 limits assumed): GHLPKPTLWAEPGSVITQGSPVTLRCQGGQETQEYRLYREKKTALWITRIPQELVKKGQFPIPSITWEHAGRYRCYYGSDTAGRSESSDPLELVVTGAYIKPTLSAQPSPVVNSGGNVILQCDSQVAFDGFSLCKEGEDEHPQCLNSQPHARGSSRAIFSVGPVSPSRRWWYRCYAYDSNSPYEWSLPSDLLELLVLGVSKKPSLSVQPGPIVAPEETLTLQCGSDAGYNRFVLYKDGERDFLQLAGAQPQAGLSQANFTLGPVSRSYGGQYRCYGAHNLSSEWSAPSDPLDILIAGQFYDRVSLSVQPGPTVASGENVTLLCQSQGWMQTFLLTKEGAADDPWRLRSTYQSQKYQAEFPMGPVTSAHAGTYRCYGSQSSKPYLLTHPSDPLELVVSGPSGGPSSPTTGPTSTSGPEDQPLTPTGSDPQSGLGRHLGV
T5 sequence (P59901 24-446 limits assumed): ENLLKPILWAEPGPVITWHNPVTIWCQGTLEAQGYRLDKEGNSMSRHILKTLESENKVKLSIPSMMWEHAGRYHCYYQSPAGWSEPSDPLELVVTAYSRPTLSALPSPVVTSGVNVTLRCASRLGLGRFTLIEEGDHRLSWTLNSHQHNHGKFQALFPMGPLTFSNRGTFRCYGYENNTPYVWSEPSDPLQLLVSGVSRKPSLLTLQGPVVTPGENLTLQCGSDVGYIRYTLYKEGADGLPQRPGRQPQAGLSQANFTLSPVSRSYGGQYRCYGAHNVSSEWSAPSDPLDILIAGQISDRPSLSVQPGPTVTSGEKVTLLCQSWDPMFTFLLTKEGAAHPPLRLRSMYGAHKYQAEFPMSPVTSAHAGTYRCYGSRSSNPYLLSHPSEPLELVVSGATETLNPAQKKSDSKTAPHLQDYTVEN
T10 sequence (A6NI73 42-268 limits assumed): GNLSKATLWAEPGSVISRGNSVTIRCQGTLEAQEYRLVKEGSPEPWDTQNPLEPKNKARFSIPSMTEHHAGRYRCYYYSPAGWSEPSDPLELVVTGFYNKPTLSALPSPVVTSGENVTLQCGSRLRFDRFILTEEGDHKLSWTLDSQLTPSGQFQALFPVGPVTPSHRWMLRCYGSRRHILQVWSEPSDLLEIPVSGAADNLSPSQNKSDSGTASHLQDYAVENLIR
T9 sequence (O75019 17-461 limits assumed): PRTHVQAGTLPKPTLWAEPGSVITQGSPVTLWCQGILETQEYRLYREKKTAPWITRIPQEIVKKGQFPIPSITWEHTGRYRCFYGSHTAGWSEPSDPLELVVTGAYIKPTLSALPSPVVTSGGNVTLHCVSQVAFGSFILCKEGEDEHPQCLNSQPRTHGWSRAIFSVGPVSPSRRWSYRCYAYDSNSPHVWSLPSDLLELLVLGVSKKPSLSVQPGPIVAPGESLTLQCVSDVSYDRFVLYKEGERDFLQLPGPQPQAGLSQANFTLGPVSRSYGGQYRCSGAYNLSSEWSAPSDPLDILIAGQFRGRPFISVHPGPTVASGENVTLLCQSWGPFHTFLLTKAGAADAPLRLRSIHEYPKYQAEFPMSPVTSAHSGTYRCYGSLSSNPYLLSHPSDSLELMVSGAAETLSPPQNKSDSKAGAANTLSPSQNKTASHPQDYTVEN
T6 sequence (O75022 24-443 limits assumed): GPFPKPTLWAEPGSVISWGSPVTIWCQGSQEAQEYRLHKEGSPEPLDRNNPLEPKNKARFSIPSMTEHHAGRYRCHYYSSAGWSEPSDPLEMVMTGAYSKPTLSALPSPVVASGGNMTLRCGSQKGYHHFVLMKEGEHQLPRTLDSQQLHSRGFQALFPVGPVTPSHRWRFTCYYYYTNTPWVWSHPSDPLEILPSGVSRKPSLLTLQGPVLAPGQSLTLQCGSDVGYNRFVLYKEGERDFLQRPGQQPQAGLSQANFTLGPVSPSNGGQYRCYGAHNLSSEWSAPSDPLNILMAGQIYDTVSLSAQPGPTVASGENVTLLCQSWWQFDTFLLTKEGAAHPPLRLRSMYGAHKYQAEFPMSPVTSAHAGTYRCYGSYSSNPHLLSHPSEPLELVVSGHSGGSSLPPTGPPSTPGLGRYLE
T3 sequence (Q8N423 22-460 limits assumed): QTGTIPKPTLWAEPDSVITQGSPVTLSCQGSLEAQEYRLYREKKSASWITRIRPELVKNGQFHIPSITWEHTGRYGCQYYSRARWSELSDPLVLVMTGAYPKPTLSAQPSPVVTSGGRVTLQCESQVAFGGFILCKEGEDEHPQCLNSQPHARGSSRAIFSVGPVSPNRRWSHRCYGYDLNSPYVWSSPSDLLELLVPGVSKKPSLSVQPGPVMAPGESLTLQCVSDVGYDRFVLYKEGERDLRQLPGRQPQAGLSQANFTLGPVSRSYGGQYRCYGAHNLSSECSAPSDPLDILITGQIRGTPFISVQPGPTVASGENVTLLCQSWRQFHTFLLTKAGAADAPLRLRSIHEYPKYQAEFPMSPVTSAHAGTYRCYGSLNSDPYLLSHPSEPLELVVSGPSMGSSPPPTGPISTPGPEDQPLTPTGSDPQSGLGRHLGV
T12 sequence (Q8N149 24-449 limits assumed): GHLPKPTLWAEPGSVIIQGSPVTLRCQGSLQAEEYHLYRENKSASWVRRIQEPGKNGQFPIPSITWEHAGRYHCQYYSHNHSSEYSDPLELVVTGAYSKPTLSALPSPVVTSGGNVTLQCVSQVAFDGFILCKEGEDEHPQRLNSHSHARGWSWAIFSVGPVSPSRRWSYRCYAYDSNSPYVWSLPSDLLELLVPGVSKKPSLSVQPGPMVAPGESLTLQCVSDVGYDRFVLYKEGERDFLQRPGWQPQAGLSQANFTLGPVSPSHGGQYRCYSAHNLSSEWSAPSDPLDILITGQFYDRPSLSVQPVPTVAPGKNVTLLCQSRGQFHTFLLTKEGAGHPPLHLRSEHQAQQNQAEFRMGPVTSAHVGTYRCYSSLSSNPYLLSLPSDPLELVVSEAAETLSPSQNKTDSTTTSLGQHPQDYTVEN
T11 sequence (Q8N6C8 24-439 limits assumed): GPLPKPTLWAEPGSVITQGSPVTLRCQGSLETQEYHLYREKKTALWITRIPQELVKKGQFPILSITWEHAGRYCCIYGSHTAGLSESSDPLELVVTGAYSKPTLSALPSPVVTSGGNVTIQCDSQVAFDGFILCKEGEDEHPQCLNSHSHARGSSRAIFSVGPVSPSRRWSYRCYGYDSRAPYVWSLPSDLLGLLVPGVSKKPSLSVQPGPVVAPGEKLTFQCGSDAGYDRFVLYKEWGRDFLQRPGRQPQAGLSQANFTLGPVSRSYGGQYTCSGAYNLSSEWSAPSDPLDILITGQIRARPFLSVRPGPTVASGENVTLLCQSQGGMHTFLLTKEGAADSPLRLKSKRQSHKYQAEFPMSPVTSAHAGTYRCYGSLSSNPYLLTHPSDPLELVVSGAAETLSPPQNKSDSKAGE
T4 sequence (Q6PI73 24-447 limits assumed): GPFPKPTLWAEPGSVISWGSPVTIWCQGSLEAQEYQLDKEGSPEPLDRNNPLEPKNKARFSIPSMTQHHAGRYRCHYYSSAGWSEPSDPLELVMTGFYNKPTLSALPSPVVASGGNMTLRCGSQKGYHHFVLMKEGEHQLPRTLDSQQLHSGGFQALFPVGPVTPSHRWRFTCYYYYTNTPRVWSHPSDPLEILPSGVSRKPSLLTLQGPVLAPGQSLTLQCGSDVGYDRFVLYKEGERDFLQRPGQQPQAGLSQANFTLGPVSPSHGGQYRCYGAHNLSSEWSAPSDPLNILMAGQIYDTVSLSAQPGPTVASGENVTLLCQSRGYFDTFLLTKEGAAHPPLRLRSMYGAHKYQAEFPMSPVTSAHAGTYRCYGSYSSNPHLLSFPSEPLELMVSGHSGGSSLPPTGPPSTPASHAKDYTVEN

- EC50 [1]: 0.406 µg/mL
- IC50 [2]: 10.5 µg/mL
- IC50(μg/mL), 抑制THP-1分泌ARG1 (arginase activity in the supernatant, with 0.5 μg/mL ApoE) [3]: 367 µg/mL
- OD 450nm/630nm [4]: 0.213
- OD 450nm/630nm [5]: 0.112
- OD 450nm/630nm [6]: 0.014
- OD 450nm/630nm [7]: 0.18
- OD 450nm/630nm [8]: 0.123
- OD 450nm/630nm [9]: 0.012
- OD 450nm/630nm [10]: 0.111
- OD 450nm/630nm [11]: 2.3
- OD 450nm/630nm [12]: 0.012
- OD 450nm/630nm [13]: 0.064
- OD 450nm/630nm [14]: 0.036
- binding result [15]: no binding (tested: 50μg/mL)
- binding result [16]: no binding (tested: 50μg/mL)
- binding result [17]: no binding (tested: 50μg/mL)
- binding result [18]: no binding (tested: 50μg/mL)
- binding result [19]: no binding (tested: 50μg/mL)
- binding result [20]: no binding (tested: 50μg/mL)
- binding result [21]: no binding (tested: 50μg/mL)
- binding result [22]: no binding (tested: 50μg/mL)
- binding result [23]: no binding (tested: 50μg/mL)
- binding result [24]: no binding (tested: 50μg/mL)
B1: 抗LILRB4单克隆抗体MF-I (full antibody, mouse IgG1 heavy chain constant region and mouse Ck light chain constant region) (antibody, V domains shown)
VH: QVQLEQSGAELVKPGASVKLSCKASGYTFTNYWMHWVKQRHGQGLEWIGEINPSNGRTNYNEKFKTKATLTVDKSSSTAYMQLSSLTSEDSAVYYCAKNYRYDDWAMDYWGQGTSVTVSS
VL: DIVLTQSPSSMYASLGERVTITCKASEDINSYLSWFQQKPGKSPKTLIYRANRLVDGVPSRFSGSGSGQDYSLTISSLEYEDMGIYYCLQYDEIPPTFGAGTKLELKA
notes: also called MF-Ⅰ
